This is an account of results in IntAct's records for PubMed 25525273.

The labels stand for the following.
B1: Krev interaction trapped protein 1 (Homo sapiens), O00522 (parent)
chain: MGNPENIEDAYVAVIRPKNTASLNSREYRAKSYEILLHEVPIEGQKKKRKKVLLETKLQGNSEITQGILDYVVETTKPISPANQGIRGKRVVLMKKFPLDGEKMGREASLFIVPSVVKDNTKYTYTPGCPIFYCLQDIMRVCSESSTHFATLTARMLIALDKWLDERHAQSHFIPALFRPSPLERIKTNVINPAYATESGQTENSLHMGYSALEIKSKMLALEKADTCIYNPLFGSDLQYTNRVDKVVINPYFGLGAPDYSKIQIPKQEKWQRSMSSVTEDKERQWVDDFPLHRSACEGDSELLSRLLSERFSVNQLDSDHWAPIHYACWYGKVEATRILLEKGKCNPNLLNGQLSSPLHFAAGGGHAEIVQILLNHPETDRHITDQQGRSPLNICEENKQNNWEEAAKLLKEAINKPYEKVRIYRMDGSYRSVELKHGNNTTVQQIMEGMRLSQETQQYFTIWICSENLSLQLKPYHKPLQHVRDWPEILAELTNLDPQRETPQLFLRRDVRLPLEVEKQIEDPLAILILFDEARYNLLKGFYTAPDAKLITLASLLLQIVYGNYESKKHKQGFLNEENLKSIVPVTKLKSKAPHWTNRILHEYKNLSTSEGVSKEMHHLQRMFLQNCWEIPTYGAAFFTGQIFTKASPSNHKVIPVYVGVNIKGLHLLNMETKALLISLKYGCFMWQLGDTDTCFQIHSMENKMSFIVHTKQAGLVVKLLMKLNGQLMPTERNS

The variants in the first experiment derive from B1. The note with it: with ccm2_human CCM2, Q9BSQ5.
Sequence of ccm2_human CCM2, Q9BSQ5 (Q9BSQ5 whole entry): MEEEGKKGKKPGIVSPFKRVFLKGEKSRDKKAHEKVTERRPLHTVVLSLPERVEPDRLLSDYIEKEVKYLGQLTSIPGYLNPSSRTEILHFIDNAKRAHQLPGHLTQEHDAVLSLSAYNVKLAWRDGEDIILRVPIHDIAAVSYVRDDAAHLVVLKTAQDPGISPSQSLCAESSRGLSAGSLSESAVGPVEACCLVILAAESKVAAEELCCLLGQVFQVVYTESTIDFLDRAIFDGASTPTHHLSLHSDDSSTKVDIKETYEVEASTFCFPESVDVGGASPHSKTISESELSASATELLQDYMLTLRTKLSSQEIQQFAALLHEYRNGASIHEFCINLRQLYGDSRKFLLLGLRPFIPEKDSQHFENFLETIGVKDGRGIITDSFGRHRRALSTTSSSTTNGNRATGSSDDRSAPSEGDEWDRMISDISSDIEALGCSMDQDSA
As to V248D, the “effect of a mutation on the interaction” value is “disrupting interaction strength”. The same measure, in the same setting: with V244L the entry was “decreasing interaction strength”; with Y252A;F253A, “disrupting interaction strength”.

In a further experiment the parent is B1. The following applies: with ccm2_human CCM2, Q9BSQ5. This is another data set of the same source.
As for F234A, the “effect of a mutation on the interaction” value was “with no effect”.

In the case of Y195A, the “effect of a mutation on the interaction” value is “with no effect”.

As for F234A;Y252A;F253A, the “effect of a mutation on the interaction” value is listed as “decreasing interaction strength”. On the same count and under the same terms, with Y252A;F253A the entry was “with no effect”.
